Reference: patent US20230174626A1

B1: humanized 23C2 mAb (antibody, human IgG1, kappa, V domains shown)
VH: DVQLQESGPGLVKPSQSLSLTCSVTGYSIKSGYYWNWIRQFPGNKLEWMGYISYGGDFTYNPSLKNRISITRDTSKNQFFLKLNSVTTEDTATYFCVREPNWESYFDIWGAGTTVTVSS
VL: DIQMTQSPASLSASVGETVTITCRASDNIYSYLTWYHQKQGKSPHLLVYNAKTLPEGVPLRFSGTGSGTQFSLKINSLQPEDFGIYFCLHDYGFPRTFGGGTILEVKR
B2: humanized 2C7 mAb (antibody, human IgG1, kappa, V domains shown)
VH: EVQLQQSGPELEKPGASVKISCKASGYSFTGYNMNWVKQSNGKSLEWIGNIDPYFGGTSYNQKFKGKATLTVDKSSSTAYMELKSLTSEDSAVYYCARHYGYFPWFAYWGQGTLVTVSA
VL: DIVLTQSPASLAVSLGQRATISCRASESVDSSGNSFMHWYQQKPGQPPKLLIYRASNLESGIPARFSGSGSRTDFTLTINPVGADDVATYYCQQSNEDPWTFGGGTKLEIKR
B3: humanized 26B6 mAb (antibody, human IgG1, kappa, V domains shown)
VH: EVQLVESGGGLVKPGGSLKLSCAASGFTITDYYIYWLRQTPEKKLEWVAAISDGGRYTDYPDSVKGRFTMSSDNAKTNLYLQMGSLQSDDTGMYYCARWASYGYHWYFDVWGAGTTVTVSS
VL: DIQMTQTTSSLSASLGDRVTISCSASQDISNYINWYQQKRDGTVKLLIYDSSSLHSGVPSRFSGSGSGTDYSLTISNLEPEDFATYFCQQYSNLPPTFGGGTNLEIKR

Key:
[1] = biological target: HCMV Pentamer protein complex (gH/gL/UL128/UL130/UL131A) (Human Cytomegalovirus (HCMV)); experiment: SPR Biacore 8K+, single-cycle kinetics, IgG captured on Protein A chip, Pentamer as analyte, 1:1 fit
[2] = biological target: HCMV gH/gL/gO protein complex (Human Cytomegalovirus (HCMV)); experiment: SPR Biacore 8K+, single-cycle kinetics, IgG captured on Protein A chip, gH/gL/gO as analyte, 1:1 fit

HCMV Pentamer protein complex (gH/gL/UL128/UL130/UL131A) (Human Cytomegalovirus (HCMV)), sequence (Q6SW67 24-719, chain 1 of 4): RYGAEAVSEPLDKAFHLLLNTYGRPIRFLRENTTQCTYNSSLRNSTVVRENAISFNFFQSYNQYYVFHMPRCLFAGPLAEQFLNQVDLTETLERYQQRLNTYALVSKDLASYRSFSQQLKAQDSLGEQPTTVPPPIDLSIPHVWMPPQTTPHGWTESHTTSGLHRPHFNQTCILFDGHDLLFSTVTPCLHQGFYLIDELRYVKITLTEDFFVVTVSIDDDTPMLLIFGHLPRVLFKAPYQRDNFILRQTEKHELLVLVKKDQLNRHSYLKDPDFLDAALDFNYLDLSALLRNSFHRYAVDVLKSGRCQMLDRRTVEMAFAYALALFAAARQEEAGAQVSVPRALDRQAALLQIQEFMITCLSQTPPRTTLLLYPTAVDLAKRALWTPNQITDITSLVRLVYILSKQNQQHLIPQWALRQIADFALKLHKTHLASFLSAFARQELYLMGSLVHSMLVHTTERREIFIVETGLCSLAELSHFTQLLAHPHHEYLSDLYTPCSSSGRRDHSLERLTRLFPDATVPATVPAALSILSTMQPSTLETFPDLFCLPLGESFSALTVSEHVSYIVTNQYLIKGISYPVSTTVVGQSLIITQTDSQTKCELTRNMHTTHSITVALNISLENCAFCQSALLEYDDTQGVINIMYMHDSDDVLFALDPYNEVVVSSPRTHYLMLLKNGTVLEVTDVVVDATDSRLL
HCMV Pentamer protein complex (gH/gL/UL128/UL130/UL131A) (Human Cytomegalovirus (HCMV)), sequence (F5HCH8 31-278, chain 2 of 4, further chain): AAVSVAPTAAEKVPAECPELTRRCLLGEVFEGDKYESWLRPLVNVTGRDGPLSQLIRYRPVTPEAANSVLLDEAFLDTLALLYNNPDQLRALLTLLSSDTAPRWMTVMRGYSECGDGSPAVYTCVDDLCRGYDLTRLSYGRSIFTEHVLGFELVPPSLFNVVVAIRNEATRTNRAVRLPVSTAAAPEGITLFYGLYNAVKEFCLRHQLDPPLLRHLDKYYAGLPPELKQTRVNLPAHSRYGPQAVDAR
HCMV Pentamer protein complex (gH/gL/UL128/UL130/UL131A) (Human Cytomegalovirus (HCMV)), sequence (P16837 28-171, chain 3 of 4, further chain): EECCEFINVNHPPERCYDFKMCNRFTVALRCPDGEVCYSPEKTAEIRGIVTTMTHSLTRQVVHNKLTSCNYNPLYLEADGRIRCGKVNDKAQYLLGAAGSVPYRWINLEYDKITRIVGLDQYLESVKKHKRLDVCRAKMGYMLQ
HCMV Pentamer protein complex (gH/gL/UL128/UL130/UL131A) (Human Cytomegalovirus (HCMV)), sequence (F5HCP3 26-214, chain 4 of 4, further chain): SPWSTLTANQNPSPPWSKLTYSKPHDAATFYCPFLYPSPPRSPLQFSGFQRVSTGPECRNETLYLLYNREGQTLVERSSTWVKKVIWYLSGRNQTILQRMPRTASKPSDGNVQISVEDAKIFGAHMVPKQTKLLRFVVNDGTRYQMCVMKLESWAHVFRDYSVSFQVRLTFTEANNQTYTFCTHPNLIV

Binder	Kd [1] [nM]	koff [1] [s⁻¹]	kon [1] [M⁻¹ s⁻¹]	Kd [2] [nM]	koff [2] [s⁻¹]	kon [2] [M⁻¹ s⁻¹]
B1	1.03	0.000285	275000			
B2	0.721	0.000322	447000	1	0.000416	415000
B3	0.123	5.3e-05	432000			
